Measured values taken from US20140134176A1 (Pfizer, published 2014).

Columns and labels:
rat PDGF-BB [1] = biological target: T1, rat PDGF-BB (rat, UniProt Q05028 74-182); test: SPR (Biacore 2000), antibody captured via anti-mouse IgG, PDGF injected; off rate beyond instrument limit
T1 construct: also called ratBB
Procedure: (§1) Anti-human (A-D, I-K) or anti-mouse (E-H) IgG antibodies were immobilized in flow cells of CM5 sensor chips. 1 μg/mL of MOR8457-IKR-hIgG1-3m (A-D), MOR8457-mIgG1 (E-H) or MOR8457-GL-hIgG1-3m (I-K) was injected independently over the respective anti-human or anti-mouse surface for 10 seconds resulting in a stable anti-PDGF surface between 50-100 RU. Different concentration of PDGF proteins, 0.25, 0.5, and 1 nM, was then injected over the antibody surface for 2 minutes at a flow rate of 100 μl/min for binding. The complex was allowed to dissociate for 10 minutes. The surface was regenerated with a 30 second injection of 10 mM magnesium chloride leaving the surface ready for another round of anti-PDGF antibody capture and PDGF binding kinetics. Each of these three antibodies bound tightly to human (A, E, I), mouse (B, F, J) and rat (C, G, K) PDGF-BB. MOR8457-IKR-hIgG1-3m (D) and MOR8457-mIgG1 (H) bound to human PDGF-AB. Each sensorgram shown is one representative of three independent experiments.
(§2) In order to test the specificity and cross species reactivity, the binding affinities of three MOR8457 IgG variants, MOR8457-IKR-hIgG1-3m, MOR8457-mIgG1, and MOR8457-GL-hIgG1-3m, to different human PDGF ligands, including human PDGF-AA, -AB, -DD, as well as rat PDGF-BB (all obtained from R&D systems, Minneapolis, Minn.) and mouse PDGF-BB (Invitrogen, Carlsbad, Calif.) were tested. Briefly, anti-human or anti-mouse IgG (GE Healthcare) antibodies were immobilized in adjacent flow cells of a CM5 sensor chip between 8000-10,000 resonance units (RU) using amine coupling as directed by the manufacturer. Antibodies were diluted into PBS-NET (10 mM Phosphate pH 7.4, 287 mM NaCl, 2.7 mM KCl, 3.2 mM EDTA, 0.01% Tween 20) to 1 μg/mL and injected independently over the respective anti-human or anti-mouse surface for 10 seconds resulting in a stable anti-PDGF surface between 50-100 RU. PDGF proteins were diluted to 1 nM in PBS-NET and serially diluted two-fold to 0.25 nM. Each concentration of PDGF was then injected over the antibody surface for 2 minutes at a flow rate of 100 μl/min. The complex was allowed to dissociate for 10 minutes. The surface was regenerated with a 30 second injection of 10 mM magnesium chloride leaving the surface ready for another round of anti-PDGF antibody capture and PDGF binding kinetics.

human PDGF-AB [2] = biological target: T2, human PDGF-AB (human, UniProt P04085 87-211, limits assumed); test: as above
T2 construct: Heterodimer of PDGF-A and PDGF-B, bought; also called huAB; Hu PDGF-AB
T2 sequence (chain, as listed by the source limits assumed, chain 2 of 2, other chains not shown): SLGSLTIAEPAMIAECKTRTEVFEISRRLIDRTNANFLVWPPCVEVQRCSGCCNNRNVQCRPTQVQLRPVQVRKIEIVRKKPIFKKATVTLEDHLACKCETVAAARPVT
Procedure: as §1, §2

mouse PDGF-BB [3] = biological target: T3, mouse PDGF-BB (mouse, UniProt P31240 82-190); test: as above
T3 construct: also called muBB; Mu PDGF-BB
T3 sequence (P31240 82-190 limits assumed): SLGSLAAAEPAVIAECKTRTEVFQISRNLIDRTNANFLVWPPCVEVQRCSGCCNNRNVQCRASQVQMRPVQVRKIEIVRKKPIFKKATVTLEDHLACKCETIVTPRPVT
Procedure: as §1, §2

human PDGF-BB [4] = biological target: T4, human PDGF-BB (human, UniProt P01127 82-190); test: as above
T4 construct: Recombinant human PDGF-BB homodimer, bought (Biosource PHG0043; R&D Systems); also called hPDGF-BB; huBB
T4 sequence (P01127 82-190 limits assumed): as the sequence (chain, as listed by the source limits assumed, chain 2 of 2, other chains not shown) above
Procedure: as §1, §2

human PDGF-BB [5] = biological target: T4, human PDGF-BB; test: SPR (Biacore) competition in solution: MOR8457-mIgG1 serially diluted, mixed with human PDGF-BB, 20 h at 2-8 C, mixture injected over PDGFRβ-hIgG1 captured on anti-human IgG; blocked partner PDGFRβ-hIgG1
Procedure: MOR8457-mIgG1 was serially diluted in PBS then mixed with […] of human PDGF-BB and incubated for 20 hours at 2-8° C. to reach equilibrium as indicated by the [brackets]. Each MOR8457-mIgG1 and PDGF-BB dilution mixture was then injected over the surface of PDGFRβ-hIgG1 captured by anti-human IgG1 on a CM5 chip. […] Data shown are from one representative experiment of two independent experiments.
Because of the complexity of the 2:1 binding stoichiometry, and also to avoid any potential artifacts introduced by sequential binding on the chip, the competitive binding was further confirmed by neutralizing PDGF-BB with MOR8457 in solution as illustrated by the diagram shown in FIG. 5A. MOR8457-mIgG1 was serially diluted in PBS then mixed with […] of human PDGF-BB and incubated for 20 hours at 2-8° C. to reach equilibrium. Each MOR8457-mIgG1 and PDGF-BB dilution mixture shown between [brackets] in FIG. 5A, was then injected over the surface of PDGFRβ-hIgG1 captured by anti-human IgG1 on a CM5 chip. FIG. 5B depicts a graph showing the concentration response curve of MOR8457 inhibition.

rat PDGF-BB [6] = biological target: T1, rat PDGF-BB; test: SPR (Biacore 2000), antibody captured via anti-mouse IgG, PDGF injected
Procedure: as §1, §2

human PDGF-AB [7] = biological target: T2, human PDGF-AB; test: as above
Procedure: as §1, §2

mouse PDGF-BB [8] = biological target: T3, mouse PDGF-BB; test: as above
Procedure: as §1, §2

human PDGF-BB [9] = biological target: T4, human PDGF-BB; test: as above
Procedure: as §1, §2

human PDGF-AA [10] = biological target: T5, human PDGF-AA (human, UniProt P04085 87-211, limits assumed); test: SPR (Biacore), antibody captured
Procedure: as §2, with “kinetics. Kinetic data were double referenced (Myszka et al., 1999, J. Mol. Recognit. 12 279) using scrubber2 software (Bio-Logic Software), then fit to a 1:1 binding model using Biacore evaluation software version 4.1. The results shown were an average of three independent binding studies.” for “kinetics.”

human PDGF-DD = human PDGF-DD (human, UniProt Q9GZP0 250-370, limits assumed); test: SPR (Biacore), antibody captured
human PDGF-DD, sequence (Q9GZP0 250-370 limits assumed): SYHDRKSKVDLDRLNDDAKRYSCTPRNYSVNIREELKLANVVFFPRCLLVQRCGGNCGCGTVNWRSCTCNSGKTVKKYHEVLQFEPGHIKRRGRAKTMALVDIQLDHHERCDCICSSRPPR
Procedure: as §2, with “kinetics. Kinetic data were double referenced (Myszka et al., 1999, J. Mol. Recognit. 12 279) using scrubber2 software (Bio-Logic Software), then fit to a 1:1 binding model using Biacore evaluation software version 4.1. The results shown were an average of three independent binding studies.” for “kinetics.”

human PDGF-BB [11] = biological target: T4, human PDGF-BB; test: cell-based or functional assay
human PDGF-AA [12] = biological target: T5, human PDGF-AA; test: ELISA

T1 sequence (Q05028 74-182 limits assumed): as the sequence (P31240 82-190 limits assumed) above, with I83V, I102V counted along it

B1: MOR8457-mIgG1 (antibody)
heavy: EVQLVESGGGLVQPGGSLRLSCAASGFTFSSYAMSWVRQAPGKGLEWVSYISDDGSLKYYADSVKGRFTISRDNSKNTLYLQMNSLRAEDTAVYYCARHPYWYGGQLDLWGQGTLVTVSSAKTTPPSVYPLAPGSAAQTNSVTLGCLVKGYFPEPVTVTWNSGSLSSGVHTFPAVLQSDLYTLSSSVTVPSSTWPSETVTCNVAHPASSTKVDKKIVPRDCGCKPCICTVPEVSSVFIFPPKPKDVLTITLTPKVTCVVVDISKDDPEVQFSWFVDDVEVHTAQTQPREEQFNSTFRSVSELPIMHQDWLNGKEFKCRVNSAAFPAPIEKTISKTKGRPKAPQVYTIPPPKEQMAKDKVSLTCMITDFFPEDITVEWQWNGQPAENYKNTQPIMDTDGSYFVYSKLNVQKSNWEAGNTFTCSVLHEGLHNHHTEKSLSHSPGK
light: SYELTQPPSVSVAPGQTARISCSGDSLGSYFVHWYQQKPGQAPVLVIYDDSNRPSGIPERFSGSNSGNTATLTISGTQAEDEADYYCSAFTHNSDVFGGGTKLTVLQPKSSPSVTLFPPSSEELETNKATLVCTITDFYPGVVTVDWFTKVDGTPVTQGMETTQPSKQSNNKYMASSYLTLTARAWERHSSYSCQVTHEGHTVEFTKSLSRADCS
notes: Original MOR8457 VH + mouse wild type IgG1 constant; original VL + mouse wild type lambda constant
In the case of B1, the Kd (rat PDGF-BB [1]) is reported as < 0.01 nM, the Kd (human PDGF-AB [2]) is reported as < 0.01 nM and the Kd (mouse PDGF-BB [3]) is reported as < 0.01 nM. The Kd (human PDGF-BB [4]) was < 0.01 nM, the “IC50 (read off the curve)” value (human PDGF-BB [5]) was ~0.04 nM and the kon (rat PDGF-BB [6]) was 1.42e+07 M⁻¹ s⁻¹. It also gave a kon (human PDGF-AB [7]) of 5.9e+06 M⁻¹ s⁻¹, a kon (mouse PDGF-BB [8]) of 2.48e+07 M⁻¹ s⁻¹ and a kon (human PDGF-BB [9]) of 1.12e+07 M⁻¹ s⁻¹. B1: no binding (tested: 0.25-1 nM PDGF) (human PDGF-AA [10]); no binding (tested: 0.25-1 nM PDGF) (human PDGF-DD).

B2: MOR8457-Fab (Fab, V domains shown)
VH: EVQLVESGGGLVQPGGSLRLSCAASGFTFSSYAMSWVRQAPGKGLEWVSYISDDGSLKYYADSVKGRFTISRDNSKNTLYLQMNSLRAEDTAVYYCARHPYWYGGQLDLWGQGTLVTVSS
VL: SYELTQPPSVSVAPGQTARISCSGDSLGSYFVHWYQQKPGQAPVLVIYDDSNRPSGIPERFSGSNSGNTATLTISGTQAEDEADYYCSAFTHNSDVFGGGTKLTVL
notes: Fab format (HuCAL GOLD, expressed in E. coli); also called Fab-MOR8457
With B2 the “IC50, inhibition of PDGF-BB-induced PDGF-Rβ Tyr751 phosphorylation (PAE PDGF-Rβ cells)” value (human PDGF-BB [11]) was 0.32 nM and the binding result (human PDGF-AA [12]) was “no binding”.
